Changes are numbered by the printed parent chain.
B1: humanized anti-L1CAM antibody hz103E9B3H9L6 (antibody, V domains shown)
VH: EVQLVQSGAEVKKPGASVKVSCKASGYTFTSYTMHWVRQAPGQGLEWIGDINPNYGGTSYNEKFKDRATLTVDKSTSTAYMELRSLRSDDTAVYYCAREGATGTWYFDVWGQGTTVTVSS
VL: DIQMTQSPSSLSASVGDRVTITCSASSSVSFMFWYQQKPGKAPKPWIYLTSNLASGVPSRFSGSGSGTDFTLTISSLQPEDFATYYCQQWRSNPPTFGGGTKVEIK
B2: anti-L1CAM human-mouse chimeric antibody ch103E9B3 (antibody, V domains shown)
VH: EVQLQQSGPELLKPGASVKISCKASGYTFTSYTMHWVKQSHGKSLEWIGDINPNYGGTSYNEKFKDKATLTVDKSSSTAYMELRSLTSEDSAVYYCAREGATGTWYFDVWGTGTTVTVSS
VL: QIVLTQSPALMSASPGEKVTMTCSASSSVSFMFWYQQKPRSSPKPWIYLTSNLASGVPARFSGSGSGTSYSLTISSMEAEDAATYYCQQWRSNPPTFGAGTKLELK
notes: VH and VL of mouse 103E9B3 with human IgG1 constant regions; The entries as printed seem to begin with a leader peptide
B3: mouse anti-L1CAM monoclonal antibody 103E9B3 (antibody, V domains shown)
VH: B2 VH
VL: B2 VL
notes: Mouse IgG tested as hybridoma supernatant
B4: mouse anti-L1CAM monoclonal antibody 49E10H1 (antibody, V domains shown)
VH: DVQLQESGPGLVKPSQSLSLTCTVTGYSITSDYAWNWIRQFPGNRLEWMGYITYSGTTTYNPSLKSRISITRDTSKNQFFLQLNSVTTADTATYYCTLDHYGNYAYFDYWGQGTTLTVSS
VL: QIVLSQSPAILSASPGEKVTMTCRASSSVSFMHWYQQKPRSSPKPWIYASSNLVSGVPTRFSGSGSGTSYSLTISRVEAEDAATYYCQQWSSNPSTFGAGTKLELK
notes: as for B3
B5: mouse anti-L1CAM monoclonal antibody 25F8H8 (antibody, V domains shown)
VH: QVQLQQSGAELAKPGASVKMSCQASGYTFTTYWMHWVKQRPGQGLEWIGYINPSTGYTDYNQKFKDKATLTADKSSSTAYMQLSSLTSEDSAVYYCARRQLGLPLFDYWGQGTTLTVSS
VL: DIVMTQSHKFLSTSVGDRVSITCKASQDVGTAVAWYQHKPGQSPKLLIFWASTRHTGVPDRFTGSGSGTDFTLTISNVQSEDLADYFCQQYSNYPLTFGAGPKLELK
notes: as for B3
B6: mouse anti-L1CAM monoclonal antibody 26A12C1 (antibody, V domains shown)
VH: B5 VH with Q23K, T31N, H35Q, G56Y, T58S, Y80F, L101F, V117L
VL: B5 VL with L11M, H38Q, F49Y, A84T, P102T, K103E
notes: as for B3
B7: mouse anti-L1CAM monoclonal antibody 46F1D5 (antibody, V domains shown)
VH: B5 VH with L4V, V18M, Q23K, T31R, H35Q, K63N, Q100H
VL: B5 VL with L11M, V15L, H38Q, F49Y, D85E, P102T, E105D
notes: as for B3
B8: anti-L1CAM human-mouse chimeric antibody ch49E10H1 (antibody, V domains shown)
VH: B4 VH
VL: B4 VL
notes: VH and VL of mouse 49E10H1 with human IgG1 constant regions; The entries as printed seem to begin with a leader peptide
B9: anti-L1CAM human-mouse chimeric antibody ch26A12C1 (antibody, V domains shown)
VH: B5 VH with Q23K, T31N, H35Q, G56Y, T58S, Y80F, L101F, V117L
VL: B5 VL with L11M, H38Q, F49Y, A84T, P102T, K103E
notes: VH and VL of mouse 26A12C1 with human IgG1 constant regions; The entries as printed seem to begin with a leader peptide
B10: anti-L1CAM human-mouse chimeric antibody ch25F8H8 (antibody, V domains shown)
VH: B5 VH
VL: B5 VL
notes: VH and VL of mouse 25F8H8 with human IgG1 constant regions (CH1, CH2, CH3)
B11: anti-L1CAM human-mouse chimeric antibody ch46F1D5 (antibody, V domains shown)
VH: B5 VH with L4V, V18M, Q23K, T31R, H35Q, K63N, Q100H
VL: B5 VL with L11M, V15L, H38Q, F49Y, D85E, P102T, E105D
notes: VH and VL of mouse 46F1D5 with human IgG1 constant regions; The entries as printed seem to begin with a leader peptide

What follows are binders tested against T1, human L1CAM (L1 cell adhesion molecule), endogenously expressed on the surface of HeLa cells (human, UniProt P32004 20-1257) (assay: flow cytometry on HeLa cells (endogenous human L1CAM)).
T1 construct: whole, on cells; also called CD171
T1 sequence (P32004 20-1257): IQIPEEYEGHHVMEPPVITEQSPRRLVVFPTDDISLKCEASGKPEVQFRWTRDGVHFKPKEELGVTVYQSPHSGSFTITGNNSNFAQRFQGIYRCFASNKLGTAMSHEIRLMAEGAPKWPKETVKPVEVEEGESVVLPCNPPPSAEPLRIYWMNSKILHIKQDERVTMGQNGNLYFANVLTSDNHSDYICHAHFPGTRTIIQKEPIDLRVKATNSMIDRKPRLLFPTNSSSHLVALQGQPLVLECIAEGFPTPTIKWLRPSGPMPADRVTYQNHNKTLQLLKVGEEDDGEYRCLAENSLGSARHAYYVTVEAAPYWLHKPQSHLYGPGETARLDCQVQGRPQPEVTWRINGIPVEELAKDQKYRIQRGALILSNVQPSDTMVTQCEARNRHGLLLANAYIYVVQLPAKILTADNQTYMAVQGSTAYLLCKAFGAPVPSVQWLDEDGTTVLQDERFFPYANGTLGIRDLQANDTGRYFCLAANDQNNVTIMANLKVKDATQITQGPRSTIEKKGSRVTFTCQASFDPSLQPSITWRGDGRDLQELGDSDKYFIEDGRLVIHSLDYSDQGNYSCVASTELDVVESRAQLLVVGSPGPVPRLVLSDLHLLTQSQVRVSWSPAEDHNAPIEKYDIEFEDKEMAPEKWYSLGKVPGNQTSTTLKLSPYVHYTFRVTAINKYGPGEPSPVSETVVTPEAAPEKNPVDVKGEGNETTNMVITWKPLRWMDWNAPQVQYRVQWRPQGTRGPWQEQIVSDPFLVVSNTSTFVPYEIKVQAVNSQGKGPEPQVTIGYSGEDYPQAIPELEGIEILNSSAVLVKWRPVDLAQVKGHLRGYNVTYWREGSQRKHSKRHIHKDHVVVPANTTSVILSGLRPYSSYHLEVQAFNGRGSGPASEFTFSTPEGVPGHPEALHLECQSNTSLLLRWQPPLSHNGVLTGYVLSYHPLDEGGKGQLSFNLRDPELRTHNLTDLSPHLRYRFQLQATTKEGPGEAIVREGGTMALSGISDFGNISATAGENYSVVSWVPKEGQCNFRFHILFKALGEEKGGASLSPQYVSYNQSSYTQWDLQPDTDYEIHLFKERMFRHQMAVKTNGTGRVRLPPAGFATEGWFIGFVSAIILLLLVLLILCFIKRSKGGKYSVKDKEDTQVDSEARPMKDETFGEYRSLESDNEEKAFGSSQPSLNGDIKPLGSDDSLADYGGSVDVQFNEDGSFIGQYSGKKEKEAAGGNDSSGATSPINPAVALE
Method: The experimental principle is as follows: HeLa cells express high levels of L1CAM protein on their surface. After incubating humanized L1CAM antibodies with the cells, the binding ability of the antibodies to L1CAM on the surface of HeLa cells can be determined by flow cytometry. The experimental method is descripted as following: Humanized L1CAM antibodies (Human IgG1-Kappa) are diluted in complete medium in a four-fold serial dilution, with seven concentration gradient points. HeLa cells are cultured in DMEM complete medium (Corning, 10-013-CVR) containing 10% FBS (Gibco, 10099-141) and 100 U/mL penicillin mixture (Thermofisher, 15140122). When the cell coverage in the culture container reaches 80-90%, TrypLE (Thermofisher, 12604-013) is used to digest the HeLa cells from the culture container, and they are seeded in a 96-well plate (AXYGEN, P-96-450V-C) at a density of 2.2×10⁶ cells/ml, with 100,000 cells (45 μL complete medium) per well. Then, 5 μL of the antibody dilution is added to each well, gently mixed, and the 96-well plate is incubated at 4° C. for 1 hour. Then, 150 μL of PBS solution containing 2% FBS (Corning, 21-040-CVC) is added to each well, centrifuged at 1400 rpm for 4 minutes, the supernatant is removed, and the wells are washed once more. Then, 50 μL of Alexa Flour 647-labeled goat anti-human fluorescent secondary antibody (Jacksonimmuno, 109-605-088) diluted 1:800 is added to each well, and the 96-well plate is incubated at 4° C. for 0.5 hours. The cells are washed twice with PBS solution containing 2% FBS, then resuspended in 120 μL of PBS, and the cell surface fluorescence signal is detected using a flow cytometer (BD FACS Celesta), obtaining the median fluorescence intensity (MFI). A dose-response curve is generated, and the half-maximal effective concentration (EC50) is calculated using non-linear regression with GraphPad software.

Row | EC50 [nM] | Binder
1 | 2.06 | B1
2 | 1.21 | B2

The binders below were run against T1, human L1CAM (L1 cell adhesion …) (assay: flow cytometry on HeLa cells (endogenous human L1CAM), hybridoma supernatant).
Method: HeLa cells used in this example were used to measure the binding of mouse anti-L1CAM monoclonal antibodies to endogenously expressed human L1CAM on the cell surface. HeLa cells were cultured in DMEM complete medium (purchased from Corning) containing 10% FBS (purchased from Gibco) and 100 U/mL penicillin-streptomycin mixture (Thermofisher, 15140122). When the coverage of the cells in the culture container reached to 80-90%, using TrypLE (purchased from Thermofisher) to digest Hela cells from the culture container, and seed them in a 96-well plate (purchased from AXYGEN) at a density of 4×10⁶ cells/ml, with 100,000 cells per well (25 μL DMEM complete culture medium), then add 25 μL of diluted hybridoma supernatant containing antibodies to each well, mix gently, and incubate the 96-well plate at 4° C. for 1 hour. Then add 150 μL of PBS buffer containing 2% FBS (purchased from Corning) to each well, centrifuge at 1400 rpm for 4 minutes, remove the supernatant, and repeat washing once. Then, 50 μL of 1:800 diluted Alexa Flour 647-labeled goat anti-mouse fluorescent secondary antibody (purchased from Jacksonimmuno) was added to each well, and the 96-well plate was incubated at 4° C. for 0.5 hours. The cells were washed twice with PBS solution containing 2% FBS, and then resuspended in 120 μL of PBS. The fluorescence signal on the cell surface was detected using a flow cytometer (BD FACSCelesta) to obtain the median fluorescence intensity (MFI). The antibody-containing hybridoma supernatant was assayed using an anti-mouse ELISA assay to determine the concentration of mouse IgG in the supernatant. Finally, a dose-response curve was generated, and the half effective concentration (EC50) was calculated by nonlinear regression using GraphPad software.

Row | EC50 [nM] | Binder
3 | 0.436 | B3
4 | 0.233 | B4
5 | 0.193 | B5
6 | 0.241 | B6
7 | 0.144 | B7

Molecular target: T1, human L1CAM (L1 cell adhesion …)
Assay: flow cytometry on HeLa cells (endogenous human L1CAM)
Remark: another data set of the same source
Method: This example utilizes HeLa cells and L1CAM-knockout HeLa cells (purchased from Abcam) to determine the binding of mouse anti-L1CAM monoclonal antibodies to endogenously expressed human L1CAM on the cell surface. L1CAM-knockout HeLa cells are referred to as HeLa KO cells in this invention. HeLa cells are cultured in DMEM complete medium (purchased from Corning) containing 10% FBS (purchased from Gibco) and 100 U/mL penicillin mixture (Thermofisher, 15140122). […] Then, the human-mouse chimeric antibodies are serially diluted in DMEM complete medium, with 25 μL of the diluted chimeric antibody solution added to each well, gently mixed, and incubated at 4° C. for 1 hour. Then, 150 μL of PBS buffer containing 2% FBS (purchased from Corning) is added to each well, centrifuged at 1400 rpm for 4 minutes, the supernatant is removed, and the wells are washed once more. Then, 50 μL of Alexa Flour 647-labeled goat anti-human fluorescent secondary antibody (purchased from Jacksonimmuno) diluted 1:800 is added to each well, and the 96-well plate is incubated at 4° C. for 0.5 hours. The cells are washed twice with PBS solution containing 2% FBS, then resuspended in 120 μL of PBS, and the cell surface fluorescence signal is detected using a flow cytometer (BD FACSCelesta), obtaining the median fluorescence intensity (MFI). A dose-response curve is generated, and the half-maximal effective concentration (EC50) is calculated using non-linear regression with GraphPad software.

Row | EC50 [nM] | Maxium MFI [MFI] | Binder
8 | 1.11 | 45400 | B2
9 | 0.978 | 42900 | B8
10 | 0.739 | 44700 | B9
11 | 0.833 | 29300 | B10
12 | 0.845 | 43100 | B11

Reference: US20260152552A1 (CURON BIOPHARMACEUTICAL SHANGHAI, published 2026)
